Series [1] concerns the target CATPO (Scytalidium thermophilum (Humicola insolens), UniProt M4GGR5). The series can be described thus: Inhibition of catechol oxidation. The class given is biochemical.
In series [2] the target is CATPO E484A variant (Scytalidium thermophilum (Humicola insolens), UniProt M4GGR5, E503A). The series can be described thus: biochemical. As to conditions: catechol oxidation by E484A; read-out: K i.
Series [3] concerns the target CATPO E484D variant (Scytalidium thermophilum (Humicola insolens), UniProt M4GGR5, E503D). The experiment in a line: biochemical. As to conditions: catechol oxidation by E484D; read-out: K i.
The target of series [4] is CATPO E484I variant (Scytalidium thermophilum (Humicola insolens), UniProt M4GGR5, E503I). The series can be described thus: biochemical. As to conditions: catechol oxidation by E484I; read-out: K i.
The target in series [5] is CATPO T188A variant (Scytalidium thermophilum (Humicola insolens), UniProt M4GGR5, T207A). The experiment in a line: biochemical. As to conditions: catechol oxidation by T188A; read-out: K i.
The target in series [6] is CATPO T188D variant (Scytalidium thermophilum (Humicola insolens), UniProt M4GGR5, T207D). The experiment in a line: biochemical. As to conditions: catechol oxidation by T188D; read-out: K i.
In series [7] the target is CATPO T188F variant (Scytalidium thermophilum (Humicola insolens), UniProt M4GGR5, T207F). The experiment in a line: biochemical. As to conditions: catechol oxidation by T188F; read-out: K i.
Series [8] deals with CATPO T188I variant (Scytalidium thermophilum (Humicola insolens), UniProt M4GGR5, T207I). The experiment in a line: biochemical. As to conditions: catechol oxidation by T188I; read-out: K i.
Series [9] concerns the target mammalian catalase. More on the design: method as in Vetrano et al., 2005. Conditions: ref Vetrano et al., 2005; cited from earlier work.
The subject of series [10] is CATPO variants. The series can be described thus: Effects on the phenol oxidase activity of the CATPO variants taken together. The class given is biochemical, Scytalidium thermophilum. As to conditions: hydrogen peroxide 1–100 mM or ethanol 2–200 mM, before or after the addition of catechol. The method, then:
(§1) All inhibition assays were performed in triplicate.

Substrate in series [11]: CCn1c(=NN=c2sc3cc(S(=O)(=O)O)ccc3n2CC)sc2cc(S(=O)(=O)O)ccc21
The experiment in a line: purified protein, by the assay type. As to conditions: 60.0 °C.

Substrate in series [12]: CC(C)(C)c1ccc(O)c(O)c1
The experiment in a line: Spectrophotometric phenol oxidase assay without H2O2 at pH 7.0 and 60 °C, initial rates fitted to the Michaelis-Menten equation. In kind it is biochemical. The method, then: as §1

Substrate in series [13]: Cc1ccc(O)c(O)c1
The description is as above. The class given is biochemical. The method, then: as §1

Substrate in series [14]: Oc1ccc(O)cc1
The series is described as above. In kind it is biochemical. The method, then:
as §1

Substrate in series [15]: Oc1ccccc1O
The series can be described thus: Spectrophotometric catechol oxidation assay at 420 nm, pH 7.0 and 60 °C; values not normalized to heme content. The class given is biochemical. The method, then:
as §1
Tabl e S1 Comparison of gate residues at the entrance of the main channel among large subunit […]
PDB ID e Organism Gate residues
Tabl e S2 K i neti c const ant s
**Catalase activity **Phenol oxidase activity
*KM-app kcat kcat/*KM-app KM kcat kcat/KM
(mM) (s-1) (s-1 M-1) (mM) (s-1) (s-1 M-1) Rz Heme
RZ = A407/A280. T he values were normalized to heme content in each CAT PO variant. T he values in parentheses are for unnor malized val ues a nd shaded in gre y for ease of vie wi ng. *KM-app is the H2O2 concentratio n at Vmax/2 […]
Michaelis–Menten kinetics (Switala & Loewen, 2002).
**One unit of catalase is defined as the amo unt that catalyses the degradation o f 1 µmol H2O2 in 1 min. One unit of phenol oxidase corresponds to the enzyme catalysing the formation of 1 nmol of product per minute.

Substrate in series [16]: Oc1ccccc1O
The series can be described thus: Phenol oxidase activity (H2O2-independent) measured spectrophotometrically by product formation at pH 7.0, 60 C, Michaelis-Menten fit. The class given is biochemical. The procedure: as §1

Substrate in series [17]: Oc1ccccc1O
Described as above. The class given is biochemical. The source holds these as a separate data set.

Where two headings read alike, the source gives them in different places.

Regarding `[F-].[Na+]` [NaF, sodium fluoride], the inhibition type entry in [1] (catechol oxidase activity of wild-type CATPO, Lineweaver–Burk) is given as “uncompetitive”; in series [9], “uncompetitive”. Moreover, the Ki in [1] (catechol oxidation by CATPO, catechol 1 to 100 mM, read-out: K i) stood at 0.67 ± 0.1 mM; in series [2] it was 7.8 ± 1.1 mM; in series [3] it was 0.66 ± 0.1 mM; in [4] it was 5.5 ± 0.2 mM; in series [5], 0.65 ± 0.1 mM; in [6] it was 5 ± 0.5 mM. The Ki in series [7] was 6.4 ± 0.4 mM; in series [8] it was 5.8 ± 0.4 mM; in [9] it was 0.75 mM.
On to `CCO` [ethanol], for which, in [10], the “effect of addition on phenol oxidase activity” value is reported as “not affected”.
The same measure, in the same setting: next, `OO` [hydrogen peroxide]: “not affected”.

B1: T188D (Mycothermus thermophilus; T207D) (protein)
chain: TCPFADPAALYSRQDTTSGQSPLAAYEVDDSTGYLTSDVGGPIQDQTSLKAGIRGPTLLEDFMFRQKIQHFDHERVPERAVHARGAGAHGTFTSYADWSNITAASFLNATGKQTPVFVRFSTVAGSRGSADTARDVHGFATRFYTDEGNFDIVGNNIPVFFIQDAIQFPDLIHSVKPRPDNEIPQAADAHDSAWDFFSQQPSTMHTLFWAMSGHGIPRSYRHMDGFGVHTFRFVKDDGSSKLIKWHFKSRQGKASLVWEEAQVLSGKNADFHRQDLWDAIESGNGPEWDVCVQIVDESQAQAFGFDLLDPTKIIPEEYAPLTKLGLLKLDRNPTNYFAETEQVMFQPGHIVRGIDFTEDPLLQGRLFSYLDTQLNRNGGPNFEQLPINMPRVPIHNNNRDGAGQMFIHRNKYPYTPNTLNSGYPRQANQNAGRGFFTAPGRTASGALVREVSPTFNDHWSQPRLFFNSLTPVEQQFLVNAMRFEISLVKSEEVKKNVLTQLNRVSHDVAVRVAAAIGLGAPDADDTYYHNNKTAGVSIVGSGPLPTIKTLRVGILATTSESSALDQAAQLRTRLEKDGLVVTVVAETLREGVDQTYSTADATGFDGVVVVDGAAALFASTASSPLFPTGRPLQIFVDAYRWGKPVGVCGGKSSEVLDAADVPEDGDGVYSEESVDMFVEEFEKGLATFRFTDRFALDS
notes: recombinant, pET-28-TEV-CATPO; contains heme b; Rz 0.5
A word on the Km: it is the concentration of substrate that gives half-maximal velocity. As a reminder, the kcat is the number of substrate molecules converted per active site and unit of time at saturation. Usually kcat/Km stands for the turnover number divided by the Michaelis constant. Take B1: the Km in [11] is given as 55 ± 1.0 mM; in series [12], 38 ± 0.5 mM; in [13], 30 ± 0.1 mM; in series [14], 46 ± 1.0 mM; in series [15], 33 mM; in [16] it was 25 ± 1.5 mM. For the same molecule, in series [16], the kcat worked out at 22300 ± 669 s⁻¹. In addition, in series [16], the kcat/Km stood at 890000 ± 7000 M⁻¹ s⁻¹.

B2: CATPO (Mycothermus thermophilus) (protein)
chain: TCPFADPAALYSRQDTTSGQSPLAAYEVDDSTGYLTSDVGGPIQDQTSLKAGIRGPTLLEDFMFRQKIQHFDHERVPERAVHARGAGAHGTFTSYADWSNITAASFLNATGKQTPVFVRFSTVAGSRGSADTARDVHGFATRFYTDEGNFDIVGNNIPVFFIQDAIQFPDLIHSVKPRPDNEIPQAATAHDSAWDFFSQQPSTMHTLFWAMSGHGIPRSYRHMDGFGVHTFRFVKDDGSSKLIKWHFKSRQGKASLVWEEAQVLSGKNADFHRQDLWDAIESGNGPEWDVCVQIVDESQAQAFGFDLLDPTKIIPEEYAPLTKLGLLKLDRNPTNYFAETEQVMFQPGHIVRGIDFTEDPLLQGRLFSYLDTQLNRNGGPNFEQLPINMPRVPIHNNNRDGAGQMFIHRNKYPYTPNTLNSGYPRQANQNAGRGFFTAPGRTASGALVREVSPTFNDHWSQPRLFFNSLTPVEQQFLVNAMRFEISLVKSEEVKKNVLTQLNRVSHDVAVRVAAAIGLGAPDADDTYYHNNKTAGVSIVGSGPLPTIKTLRVGILATTSESSALDQAAQLRTRLEKDGLVVTVVAETLREGVDQTYSTADATGFDGVVVVDGAAALFASTASSPLFPTGRPLQIFVDAYRWGKPVGVCGGKSSEVLDAADVPEDGDGVYSEESVDMFVEEFEKGLATFRFTDRFALDS
notes: recombinant, pET-28-TEV-CATPO; contains heme d; Rz 0.8
On to B2, for which the Km in [11] is 50 ± 1.5 mM; in series [12] it was 36 ± 1.0 mM; in [13], 35 ± 0.3 mM; in series [14] it was 45 ± 1.5 mM; in series [17] it was 33 ± 0.5 mM. In [17], the kcat is 7300 ± 365 s⁻¹. Moreover, the catalytic efficiency (kcat/Km) in [17] worked out at 220000 ± 13000 M⁻¹ s⁻¹.

B3: T188I (Mycothermus thermophilus; T207I) (protein)
chain: TCPFADPAALYSRQDTTSGQSPLAAYEVDDSTGYLTSDVGGPIQDQTSLKAGIRGPTLLEDFMFRQKIQHFDHERVPERAVHARGAGAHGTFTSYADWSNITAASFLNATGKQTPVFVRFSTVAGSRGSADTARDVHGFATRFYTDEGNFDIVGNNIPVFFIQDAIQFPDLIHSVKPRPDNEIPQAAIAHDSAWDFFSQQPSTMHTLFWAMSGHGIPRSYRHMDGFGVHTFRFVKDDGSSKLIKWHFKSRQGKASLVWEEAQVLSGKNADFHRQDLWDAIESGNGPEWDVCVQIVDESQAQAFGFDLLDPTKIIPEEYAPLTKLGLLKLDRNPTNYFAETEQVMFQPGHIVRGIDFTEDPLLQGRLFSYLDTQLNRNGGPNFEQLPINMPRVPIHNNNRDGAGQMFIHRNKYPYTPNTLNSGYPRQANQNAGRGFFTAPGRTASGALVREVSPTFNDHWSQPRLFFNSLTPVEQQFLVNAMRFEISLVKSEEVKKNVLTQLNRVSHDVAVRVAAAIGLGAPDADDTYYHNNKTAGVSIVGSGPLPTIKTLRVGILATTSESSALDQAAQLRTRLEKDGLVVTVVAETLREGVDQTYSTADATGFDGVVVVDGAAALFASTASSPLFPTGRPLQIFVDAYRWGKPVGVCGGKSSEVLDAADVPEDGDGVYSEESVDMFVEEFEKGLATFRFTDRFALDS
notes: recombinant, pET-28-TEV-CATPO; contains heme b; Rz 0.4
B3: the Km in series [11] is on record as 48 ± 0.7 mM; in series [12], 35 ± 0.5 mM; in series [13], 34 ± 1.2 mM; in series [14], 44 ± 0.4 mM; in series [15], 40 mM; in [16], 31 ± 0.5 mM. Further, the kcat in series [16] turned out to be 28400 ± 1100 s⁻¹. Further, the catalytic efficiency (kcat/Km) in [16] is 920000 ± 4500 M⁻¹ s⁻¹.

The record behind these values is paper PMC10836395, “Investigation of how gate residues in the main channel affect the catalytic activity of Scytalidium thermophilum catalase” (Acta Crystallographica. Section D, Structural Biology, 2024).
